Tests used:
4H2859-bA = target: T1, 4H2859-bA; experiment: two-hybrid library CCNG1;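 also: natural log of median RNA to DNA barcode read ratio; higher means stronger binding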
T1 chain: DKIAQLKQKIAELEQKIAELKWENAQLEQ

4H349-bA = target: T2, 4H349-bA; experiment: two-hybrid library CCNG1;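 also: natural log of median RNA to DNA barcode read ratio; higher means stronger binding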
T2 chain: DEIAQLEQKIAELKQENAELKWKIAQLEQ

4H796-bA = target: T3, 4H796-bA; experiment: two-hybrid library CCNG1;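 also: natural log of median RNA to DNA barcode read ratio; higher means stronger binding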
T3 chain: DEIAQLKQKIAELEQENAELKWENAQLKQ

4H3381-bA = target: T4, 4H3381-bA; experiment: two-hybrid library CCNG1;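 also: natural log of median RNA to DNA barcode read ratio; higher means stronger binding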
T4 chain: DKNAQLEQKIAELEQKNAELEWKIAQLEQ

4H3364-bA = target: T5, 4H3364-bA; experiment: two-hybrid library CCNG1;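 also: natural log of median RNA to DNA barcode read ratio; higher means stronger binding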
T5 chain: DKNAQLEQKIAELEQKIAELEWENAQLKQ

4H2253-bA = target: T6, 4H2253-bA; experiment: two-hybrid library CCNG1;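 also: natural log of median RNA to DNA barcode read ratio; higher means stronger binding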
T6 chain: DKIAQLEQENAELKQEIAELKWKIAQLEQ

4H2518-bA = target: T7, 4H2518-bA; experiment: two-hybrid library CCNG1
T7 chain: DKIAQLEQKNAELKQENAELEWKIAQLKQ

4H949-bA = target: T8, 4H949-bA; experiment: two-hybrid library CCNG1
T8 chain: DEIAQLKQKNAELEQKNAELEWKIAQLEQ

4H3041-bA = target: T9, 4H3041-bA; experiment: two-hybrid library CCNG1
T9 chain: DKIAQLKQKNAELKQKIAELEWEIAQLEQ

4H2585-bA = target: T10, 4H2585-bA; experiment: two-hybrid library CCNG1
T10 chain: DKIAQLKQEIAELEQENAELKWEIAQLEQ

4H264-bA = target: T11, 4H264-bA; experiment: two-hybrid library CCNG1
T11 chain: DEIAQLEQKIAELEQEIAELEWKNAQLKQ

4H2760-bA = target: T12, 4H2760-bA; experiment: two-hybrid library CCNG1
T12 chain: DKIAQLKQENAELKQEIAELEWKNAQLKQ

4H2444-bA = target: T13, 4H2444-bA; experiment: two-hybrid library CCNG1
T13 chain: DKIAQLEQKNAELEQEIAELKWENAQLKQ

4H932-bA = target: T14, 4H932-bA; experiment: two-hybrid library CCNG1
T14 chain: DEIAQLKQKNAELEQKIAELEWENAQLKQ

4H730-bA = target: T15, 4H730-bA; experiment: two-hybrid library CCNG1
T15 chain: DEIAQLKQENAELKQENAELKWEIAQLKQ

P6bH1 = target: T16, P6bH1; experiment: two-hybrid library CCNG1
T16 chain: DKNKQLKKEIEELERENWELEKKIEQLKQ

4H3297-bA = target: T17, 4H3297-bA; experiment: two-hybrid library CCNG1
T17 chain: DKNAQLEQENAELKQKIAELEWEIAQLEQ

4H56-bA = target: T18, 4H56-bA; experiment: two-hybrid library CCNG1
T18 chain: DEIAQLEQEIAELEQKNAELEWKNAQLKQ

4H2931-bA = target: T19, 4H2931-bA; experiment: two-hybrid library CCNG1
T19 chain: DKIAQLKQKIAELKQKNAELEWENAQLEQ

4H235-bA = target: T20, 4H235-bA; experiment: two-hybrid library CCNG1
T20 chain: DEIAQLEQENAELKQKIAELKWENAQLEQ

4H2758-AA = target: T21, 4H2758-AA; experiment: two-hybrid library CCmax; conditions: mean of both orientations
T21 chain: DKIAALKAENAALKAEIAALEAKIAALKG

4H2646-AA = target: T22, 4H2646-AA; experiment: two-hybrid library CCmax; conditions: mean of both orientations
T22 chain: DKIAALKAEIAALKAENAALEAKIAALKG

4H3134-AA = target: T23, 4H3134-AA; experiment: two-hybrid library CCmax; conditions: mean of both orientations
T23 chain: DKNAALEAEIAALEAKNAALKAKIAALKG

4H3409-AA = target: T24, 4H3409-AA; experiment: two-hybrid library CCmax; conditions: mean of both orientations
T24 chain: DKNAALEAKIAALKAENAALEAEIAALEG

4H2512-AA = target: T25, 4H2512-AA; experiment: two-hybrid library CCmax; conditions: mean of both orientations
T25 chain: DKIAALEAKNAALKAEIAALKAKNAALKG

4H3625-AA = target: T26, 4H3625-AA; experiment: two-hybrid library CCmax; conditions: mean of both orientations
T26 chain: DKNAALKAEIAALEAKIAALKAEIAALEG

4H233-AA = target: T27, 4H233-AA; experiment: two-hybrid library CCmax; conditions: mean of both orientations
T27 chain: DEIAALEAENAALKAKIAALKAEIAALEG

4H390-AA = target: T28, 4H390-AA; experiment: two-hybrid library CCmax; conditions: mean of both orientations
T28 chain: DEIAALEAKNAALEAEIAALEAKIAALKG

4H2705-AA = target: T29, 4H2705-AA; experiment: two-hybrid library CCmax; conditions: mean of both orientations
T29 chain: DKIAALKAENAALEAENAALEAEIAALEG

4H2873-AA = target: T30, 4H2873-AA; experiment: two-hybrid library CCmax; conditions: mean of both orientations
T30 chain: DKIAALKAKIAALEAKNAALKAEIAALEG

4H510-AA = target: T31, 4H510-AA; experiment: two-hybrid library CCmax; conditions: mean of both orientations
T31 chain: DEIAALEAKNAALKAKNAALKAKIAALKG

4H775-AA = target: T32, 4H775-AA; experiment: two-hybrid library CCmax
T32 chain: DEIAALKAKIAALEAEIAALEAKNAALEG

4H3940-AA = target: T33, 4H3940-AA; experiment: two-hybrid library CCmax; conditions: mean of both orientations
T33 chain: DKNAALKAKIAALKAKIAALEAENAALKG

4H2187-AA = target: T34, 4H2187-AA; experiment: two-hybrid library CCmax
T34 chain: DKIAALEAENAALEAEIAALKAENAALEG

4H278-AA = target: T35, 4H278-AA; experiment: two-hybrid library CCmax; conditions: mean of both orientations
T35 chain: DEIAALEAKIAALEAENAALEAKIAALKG

4H2985-AA = target: T36, 4H2985-AA; experiment: two-hybrid library CCmax; conditions: mean of both orientations
T36 chain: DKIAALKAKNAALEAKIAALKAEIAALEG

4H816-AA = target: T37, 4H816-AA; experiment: two-hybrid library CCmax; conditions: mean of both orientations
T37 chain: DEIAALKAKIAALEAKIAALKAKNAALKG

4H2687-AA = target: T38, 4H2687-AA; experiment: two-hybrid library CCmax; conditions: mean of both orientations
T38 chain: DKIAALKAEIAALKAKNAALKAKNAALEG

4H87-AA = target: T39, 4H87-AA; experiment: two-hybrid library CCmax; conditions: mean of both orientations
T39 chain: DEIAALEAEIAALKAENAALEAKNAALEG

B1: 4H2253-bA (peptide)
chain: DKIAQLEQENAELKQEIAELKWKIAQLEQ
Question: With B1 as the binder, how does the interaction score (4H2859-bA) read?
Answer: -0.839

Question: What about the interaction score (4H349-bA) of the same binder?
Answer: -0.459

Question: And the interaction score (4H796-bA)?
Answer: -1.65

Question: What about the interaction score (4H3381-bA) of the same binder?
Answer: -0.743

Question: And the interaction score (4H3364-bA)?
Answer: -0.504

Question: What about the interaction score (4H2253-bA) of the same binder?
Answer: 1.28

Question: And the interaction score (4H2518-bA)?
Answer: 0.247

Question: And the interaction score (4H949-bA)?
Answer: -0.968

Question: What about the interaction score (4H3041-bA) of the same binder?
Answer: 0.651

Question: What about the interaction score (4H2585-bA) of the same binder?
Answer: -0.557

Question: And the interaction score (4H264-bA)?
Answer: -0.996

Question: And the interaction score (4H2760-bA)?
Answer: 0.778

Question: What about the interaction score (4H2444-bA) of the same binder?
Answer: 0.026

Question: What about the interaction score (4H932-bA) of the same binder?
Answer: -0.529

Question: And the interaction score (4H730-bA)?
Answer: -0.707

Question: What about the interaction score (P6bH1) of the same binder?
Answer: -1.05

Question: And the interaction score (4H3297-bA)?
Answer: 0.145

Question: What about the interaction score (4H56-bA) of the same binder?
Answer: -0.0723

Question: And the interaction score (4H2931-bA)?
Answer: -0.566

Question: What about the interaction score (4H235-bA) of the same binder?
Answer: 0.641

B2: 4H2187-AA (peptide)
chain: DKIAALEAENAALEAEIAALKAENAALEG
Question: What does the source list for B2?
Answer: interaction score (4H2758-AA): 0.853; interaction score (4H2646-AA): -1.38; interaction score (4H3134-AA): 1.47; interaction score (4H3409-AA): -1.46; interaction score (4H2512-AA): 2.24; interaction score (4H3625-AA): -1.12; interaction score (4H233-AA): -0.428; interaction score (4H390-AA): 0.639; interaction score (4H2705-AA): -1.68; interaction score (4H2873-AA): 0.406; interaction score (4H510-AA): 0.192; interaction score (4H775-AA): -1.71; interaction score (4H3940-AA): -1.38; interaction score (4H2187-AA): -0.477; interaction score (4H278-AA): -0.772; interaction score (4H2985-AA): -0.684; interaction score (4H816-AA): -0.683; interaction score (4H2687-AA): -0.754; interaction score (4H87-AA): -2.2
